# Assay results published in patent US20170037124A1 (Regeneron, published 2017).
# T1: human ANGPTL8 peptide (hANGPTL8 peptide, SEQ ID NO: 337) (human)
# T1 construct: also called N-terminal region ANGPTL8 peptide
# T1 peptide: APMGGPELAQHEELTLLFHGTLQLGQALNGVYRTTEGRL
# T2: peptide from the N-terminal coiled-coil region of human ANGPTL3 (hANGPTL3 peptide, SEQ ID NO: 338) (human)
# T2 construct: also called hANGPTL3 shift peptide
# T2 peptide: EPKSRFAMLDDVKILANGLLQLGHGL
# T3: peptide from the N-terminal coiled-coil region of human ANGPTL4 (hANGPTL4 peptide, SEQ ID NO: 339) (human)
# T3 peptide: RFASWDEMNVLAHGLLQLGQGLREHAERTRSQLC
# T4: monkey ANGPTL8 expressed with C-terminal mouse IgG2a Fc tag (MfANGPTL8-mFc; SEQ ID NO: 341) (cynomolgus monkey)
# T4 construct: also called cynomolgus monkey ANGPTL8
# T4 chain: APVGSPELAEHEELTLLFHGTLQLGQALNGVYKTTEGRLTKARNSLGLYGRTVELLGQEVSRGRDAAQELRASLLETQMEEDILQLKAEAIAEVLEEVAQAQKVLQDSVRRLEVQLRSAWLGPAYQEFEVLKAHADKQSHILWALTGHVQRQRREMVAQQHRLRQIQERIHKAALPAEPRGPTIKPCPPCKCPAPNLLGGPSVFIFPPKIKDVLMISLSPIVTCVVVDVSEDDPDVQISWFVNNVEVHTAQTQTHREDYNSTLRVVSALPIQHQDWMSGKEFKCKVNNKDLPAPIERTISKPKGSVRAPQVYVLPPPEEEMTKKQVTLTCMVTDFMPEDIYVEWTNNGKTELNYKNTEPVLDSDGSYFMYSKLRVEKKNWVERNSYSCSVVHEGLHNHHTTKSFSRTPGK
# T5: human ANGPTL8 expressed with C-terminal mouse IgG2a Fc tag (hANGPTL8-mFc; SEQ ID NO: 340) (human)
# T5 construct: also called Angiopoietin-like protein 8
# T5 chain: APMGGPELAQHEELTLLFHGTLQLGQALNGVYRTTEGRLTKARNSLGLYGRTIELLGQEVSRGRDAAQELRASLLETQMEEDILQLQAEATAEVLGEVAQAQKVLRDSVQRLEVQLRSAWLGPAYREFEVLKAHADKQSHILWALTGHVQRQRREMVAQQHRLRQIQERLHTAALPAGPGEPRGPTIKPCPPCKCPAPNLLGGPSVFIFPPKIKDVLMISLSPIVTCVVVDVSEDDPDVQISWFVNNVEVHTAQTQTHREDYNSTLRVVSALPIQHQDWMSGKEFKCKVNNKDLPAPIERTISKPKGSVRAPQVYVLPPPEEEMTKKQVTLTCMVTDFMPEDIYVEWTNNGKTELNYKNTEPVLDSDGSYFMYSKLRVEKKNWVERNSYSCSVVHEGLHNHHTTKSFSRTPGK
# T6: linear peptide 1APMGGPELAQHEELT15 (SEQ ID NO: 348) (human)
# T6 construct: Synthesized on a solid support (Pepscan array)
# T6 peptide: APMGGPELAQHEELT
# B1: H4H15330P (antibody, human IgG4, V domains shown)
# VH: QVQLVESGGGLVKPGGSLRLSCAASGFTFSDYYMSWIRQAPGKGLEWISHISGSGRTTHYADSMKGRFTISRDNAKNSLYLQMNSLRAEDTAVYYCVREGGFNWNYEGTFDIWGQGTMVTVSS
# VL: DIVMTQTPLSSPVTLGQPASISCRSSQSLLHSDQNTYLSWLHQRPGQPPRLLIYKISNRFSGVPDRFSGSGAGTDFTLKISRVEAEDVGIYYCMQGTQFPLTFGGGTKVEIK
# notes: H4H prefix: human IgG4 Fc
# B2: H4H15321P (antibody, human IgG4, V domains shown)
# VH: EVQLVESGGGLVQPGGSLRLSCAASGFTFSSYAMSWVRQAPGKGLEWVSAITGSGGRTYYADSVKGRFTISRDNAKNTLYLQMNSLRAEDTAVYYCAKNFPFDYWGQGTLVTVSS
# VL: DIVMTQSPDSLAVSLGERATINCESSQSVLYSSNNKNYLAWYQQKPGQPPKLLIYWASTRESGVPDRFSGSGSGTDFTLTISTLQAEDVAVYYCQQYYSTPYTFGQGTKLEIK
# notes: H4H prefix: human IgG4 Fc
# B3: H4H15362P2 (antibody, human IgG4, V domains shown)
# VH: QVQLVESGGGVVQPGRSLRLSCAASGFTFSSYGMHWVRQAPGKGLEWVAVIWYDGSNKYYADSVKGRFTISRDNSKNTLYLQMNSLRAEDTAVYYCARDWVRFLEWFPHFDYWGQGTLVTVSS
# VL: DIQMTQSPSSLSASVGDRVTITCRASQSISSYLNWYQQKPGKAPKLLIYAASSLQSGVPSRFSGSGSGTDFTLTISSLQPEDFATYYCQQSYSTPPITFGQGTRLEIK
# notes: H4H prefix: human IgG4 Fc
# B4: H4H15367P2 (antibody, human IgG4, V domains shown)
# VH: QVQLVESGGGVVQPGRSVRLSCGASGFTFKYYGMHWVRQAPGKGLEWVAVIWYDGRNKFYADSVKGRFTISRDNSKNTVNLEMNNLRAEDTAIYYCARDGGTADGDYFDYWGQGTLVTVSS
# VL: not shown
# notes: H4H prefix: human IgG4 Fc
# Biological target: T7, anti-mFc (AMC) Octet biosensor, blank
# T7 construct: Sensor without captured protein, used as blank; also called Blank AMC Sensor
# Experiment: BLI Octet, blank AMC sensor, 100 nM mAb, 25C
# Summary of the method: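 Antigen-mFc (human or cynomolgus ANGPTL8; hLDLR-mFc as negative control; one blank sensor) captured to ~1.6 nm from 10 μg/mL over 4 min. Sensors dipped 4 min in 100 nM mAb or isotype control at 25° C. Buffer: 10 mM HEPES pH 7.4, 150 mM NaCl, 0.05% Tween-20, 1 mg/ml BSA, shaken at 1000 rpm.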
row,Binder,mAb Binding Response (nm)
1,B1,0.01
2,B2,0
3,B3,0.01
4,B4,0

# Biological target: T1, human ANGPTL8 peptide (hANGPTL8 …)
# Experiment: SPR, captured mAb, 500 nM peptide, 25C
Binder,500 nM hANGPTL8 peptide Bound (RU),binding result,koff [s⁻¹],t½ [min]
B1,0,no binding (tested: <9 RU at 500 nM peptide),–,–
B2,61,–,8.29e-05,139
B3,0,no binding (tested: <9 RU at 500 nM peptide),–,–
B4,43,–,9.82e-05,118

# Biological target: T2, peptide from the N-terminal coiled-coil …
# Experiment: SPR, captured mAb, 500 nM peptide, 25C
Binder,500 nM hANGPTL3 peptide Bound (RU),binding result
B1,-1,–
B2,0,no binding (tested: <9 RU at 500 nM peptide)
B3,0,no binding (tested: <9 RU at 500 nM peptide)
B4,0,no binding (tested: <9 RU at 500 nM peptide)

# Biological target: T3, peptide from the N-terminal coiled-coil …
# Experiment: SPR, captured mAb, 500 nM peptide, 25C
Binder,500 nM hAngPTL4 peptide Bound (RU),binding result
B1,0,no binding (tested: <9 RU at 500 nM peptide)
B2,0,no binding (tested: <9 RU at 500 nM peptide)
B3,0,no binding (tested: <9 RU at 500 nM peptide)
B4,0,no binding (tested: <9 RU at 500 nM peptide)

# Biological target: T4, monkey ANGPTL8 expressed with …
# Experiment: BLI Octet, captured antigen, 100 nM mAb, 25C
row,Binder,mAb Binding Response (nm)
1,B1,0.39
2,B2,0.51
3,B3,0.36
4,B4,0.33

# Biological target: T5, human ANGPTL8 expressed with C-terminal …
# Experiment: BLI Octet, captured antigen, 100 nM mAb, 25C
row,Binder,mAb Binding Response (nm)
1,B1,0.34
2,B2,0.36
3,B3,0.39
4,B4,0.32

# Biological target: T8, negative control protein with the same mFc tag (hLDLR-mFc) (human; mouse, UniProt P01130 22-788, limits assumed)
# T8 construct: also called Irrelevant control; not shown: mouse IgG2a Fc tag (same mFc tag as hANGPTL8-mFc)
# Experiment: BLI Octet, captured antigen, 100 nM mAb, 25C
# T8 sequence (P01130 22-788 limits assumed): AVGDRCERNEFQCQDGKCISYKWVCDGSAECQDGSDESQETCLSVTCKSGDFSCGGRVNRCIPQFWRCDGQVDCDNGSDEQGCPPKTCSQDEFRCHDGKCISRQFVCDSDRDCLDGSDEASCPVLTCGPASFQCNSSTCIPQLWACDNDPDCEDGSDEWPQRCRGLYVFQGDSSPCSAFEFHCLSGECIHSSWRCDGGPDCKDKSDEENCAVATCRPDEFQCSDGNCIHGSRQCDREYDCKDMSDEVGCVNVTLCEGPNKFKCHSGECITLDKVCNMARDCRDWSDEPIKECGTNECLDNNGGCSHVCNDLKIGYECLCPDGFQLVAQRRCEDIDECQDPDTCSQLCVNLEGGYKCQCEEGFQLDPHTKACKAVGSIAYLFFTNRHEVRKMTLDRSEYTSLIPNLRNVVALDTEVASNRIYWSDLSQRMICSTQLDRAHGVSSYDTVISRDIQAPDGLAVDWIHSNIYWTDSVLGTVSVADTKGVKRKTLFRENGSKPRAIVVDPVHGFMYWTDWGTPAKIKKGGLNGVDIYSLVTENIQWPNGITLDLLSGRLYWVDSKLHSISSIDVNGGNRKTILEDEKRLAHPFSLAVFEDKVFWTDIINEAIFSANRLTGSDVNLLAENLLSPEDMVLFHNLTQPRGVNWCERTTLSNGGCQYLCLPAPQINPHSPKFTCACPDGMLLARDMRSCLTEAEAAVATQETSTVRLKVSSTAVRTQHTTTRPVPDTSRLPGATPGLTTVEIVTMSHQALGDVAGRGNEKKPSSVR
row,Binder,mAb Binding Response (nm)
1,B1,0.02
2,B2,0.01

# Biological target: T6, linear peptide 1APMGGPELAQHEELT15 (SEQ …)
# Experiment: Pepscan peptide array ELISA, 1 µg/ml antibody
# Description: The binding of antibody to each of the synthesized peptides was tested in a PEPSCAN-based ELISA. The peptide arrays were incubated with primary antibody solution (overnight at 4° C.). […] After washing, the peroxidase substrate 2,2′-azino-di-3-ethylbenzthiazoline sulfonate (ABTS) and 20 μl/ml of 3 percent H₂O₂ were added. After one hour, the color development was measured. The color development was quantified with a charge coupled device (CCD)—camera and an image processing system.
row,Binder,binding result
1,B4,binds

# Biological target: T5, human ANGPTL8 expressed with C-terminal …
# Experiment: BLI Octet, captured antigen, 100 nM mAb, 25C; background 0.03 nm
# Description: Binding of ANGPTL8 antibodies to human and monkey ANGPTL8 proteins was investigated using Bio-layer Interferometry with an Octet HTX biosensor platform (ForteBio, A Division of Pall Life Sciences). All experiments were performed at 25° C. in 10 mM HEPES pH 7.4, 150 mM NaCl, 0.05% v/v Surfactant Tween-20, and 1 mg/ml BSA with the reaction multiwell plate agitated at 1000 rpm. Approximately 1.6 nm of human ANGPTL8 produced with a C-terminal mouse IgG2a Fc tag (hANGPTL8-mFc; SEQ ID NO: 340) or cynomolgus monkey ANGPTL8 produced with a C-terminal mouse IgG2a Fc tag (MfANGPTL8-mFc; SEQ ID NO: 341) was captured onto anti-mFc (AMC) Octet biosensors by submerging the sensors into wells containing 10 μg/mL of each protein for 4 minutes. Under the same conditions a negative control protein with the same mFc tag (hLDLR-mFc) was also coupled to the AMC sensor. All four sensors, […] and one blank, were then submerged into wells containing 100 nM of different ANGPTL8 monoclonal antibodies or an isotype control for 4 minutes.
row,Binder,"binding signal, fold above background [fold]"
1,B1,≥ 10
2,B2,≥ 10
3,B3,≥ 10
4,B4,≥ 10
